Results on 9 molecules are retold here after patent US20060148038A1 (INST NAT L DE LA SANTE ET DE LA RECH MEDICALE, published 2006).

The target of series [1] is FX-recombinant (zymogen) (UniProt P00742).
The target in series [2] is GDX-AVG (zymogen) (UniProt P00742).
The target of series [3] is GDX-IVG (zymogen) (UniProt P00742).
The target in series [4] is GDX-IFG (zymogen) (UniProt P00742).
The target in series [5] is GDX-SFR (zymogen) (UniProt P00742).
In series [6] the target is GDX-SVG (zymogen) (UniProt P00742).
The target in series [7] is D-Phe-Phe-Arg-CH3Cl. In words: inactivation kinetics: residual amidolytic activity on S2765 after incubation with D-FFR-CK, pseudo-first order, 25° C.
Series [8] concerns the target T1, antithrombin (purified from human plasma) (human, UniProt P01008 33-464).
T1 construct: mature
In words: inhibition kinetics, continuous S2765 hydrolysis, pseudo-first order, no heparin, 25° C. The text has this:
The method by continuous recording of the absorbance at 405 nm under pseudo-first order conditions is used to estimate (in the absence of heparin) the kₒₙ of the antithrombin for the activated form of the factor X derivative lacking Gla domain, and those of the activated forms of the GDX-IVG and GDX-IFG derivatives.

Series [9] addresses T1, antithrombin (purified from human …). In words: inhibition kinetics, continuous S2765 hydrolysis, second-order (slow tight-binding) conditions, 2 units/ml heparin, 25° C. The procedure:
The kinetics are studied at 25° C., in kinetics buffer containing 1 mg/ml of protease-free bovine albumin and 2 units per ml of heparin; they are followed continuously by virtue of the presence in the reaction medium of 400 μM S2765. The reaction is carried out in a microcuvette in a volume of 600 μl, following the kinetics using a lambda 14 spectrophotometer. The reaction is triggered by adding the minimum amount of activated form of the factor X derivative which is compatible with a reliable signal (1 to 2.5 nM depending on the derivative, such that, in the absence of inhibitor, approximately 10% of the chromogenic substrate is hydrolysed in 60 minutes). For each activated form of factor X derivative, the reaction is carried out in the presence of two concentrations of antithrombin, equal to 2 and 3 times the concentration of the target. By plotting the absorbance at 405 nm as a function of time, a curve is obtained which makes it possible, by non-linear regression using equation 6, to estimate the second-order rate constant for the reaction. The kₒₙ of the antithrombin for the activated form of the factor X derivative is given by equation 5 which takes into consideration the competition introduced by the substrate during the kinetics.

Series [10] deals with prothrombin (immunopurified).
In series [11] the target is factor Va (KORDIA).
Series [12] concerns the target T1, antithrombin (purified from human …). In words: SDS-PAGE of covalent complexes, 1 µM derivative, 2 µM antithrombin, 2 units/ml heparin. The procedure:
(§1) The incubation is sustained for one hour at 25° C., and the reaction mixture is analysed by polyacrylamide gel electrophoresis (10%, crosslinking 29/1), after denaturation and reduction of the sample. After staining with Coomassie blue, the presence of covalent complexes between the (inactivated) form of the factor X derivative and the antithrombin results in a decrease in the intensity of the band corresponding to antithrombin (60 kDa), a decrease in the intensity of the band corresponding to the activated form of the factor X derivative (31 kDa), and the appearance of a new band of higher molecular weight (approximately 100 kDa) corresponding to the covalent complex.

Series [13] shares this target. The series is described as follows: SDS-PAGE with Coomassie blue after incubation with antithrombin and heparin. The method, then:
as §1

Series [14] shares this target. The series is described as follows: inhibition kinetics, batchwise residual amidolytic activity on S2765, pseudo-first order, 2 units/ml heparin, 25° C. The procedure:
The method by batchwise sampling of aliquots is used to estimate the kₒₙ of the antithrombin for the activated form of the GDX-AVG derivative (in the presence and the absence of heparin).
The reaction is carried out in kinetics buffer containing 1 mg/ml of protease-free bovine albumin (SIGMA, St Quentin-Fallavier, France) and, when appropriate, 2 units per ml of heparin (KORDIA). In a reaction volume of 10 μl, a sufficient amount of the activated form of the GDX-AVG derivative (0.5 μM in the presence of heparin, 1 μM in its absence) is incubated in the presence of a large excess of antithrombin (5 μM in the presence of heparin, 10 μM in its absence), for a varying amount of time at 25° C. The same experiment is repeated twelve times, varying the incubation time from one experiment to another (from 10 seconds for the first to 5 hours for the last, such that the incubation time for a given experiment is equal to double that of the preceding one). At the end of each incubation, 190 μl of S2765 (200 μM in kinetics buffer) are added, and the residual amidolytic activity is measured by recording the variation in the absorbance at 405 nm as a function of time (i.e. the initial rate of hydrolysis of the S2765) using an MR5000 microplate reader. […]

Series [15] has as its target D-Phe-Phe-Arg-CH3Cl. In words: inactivation kinetics with D-FFR-CK, residual amidolytic activity on S2765.
For series [16], the target named is T1, antithrombin (purified from human …). In words: inhibition kinetics with antithrombin, no heparin.

Where a chain is given by its changes, count along the chain named. Where only a bound is given, the exact number is not on record here.

T1 sequence (P01008 33-464): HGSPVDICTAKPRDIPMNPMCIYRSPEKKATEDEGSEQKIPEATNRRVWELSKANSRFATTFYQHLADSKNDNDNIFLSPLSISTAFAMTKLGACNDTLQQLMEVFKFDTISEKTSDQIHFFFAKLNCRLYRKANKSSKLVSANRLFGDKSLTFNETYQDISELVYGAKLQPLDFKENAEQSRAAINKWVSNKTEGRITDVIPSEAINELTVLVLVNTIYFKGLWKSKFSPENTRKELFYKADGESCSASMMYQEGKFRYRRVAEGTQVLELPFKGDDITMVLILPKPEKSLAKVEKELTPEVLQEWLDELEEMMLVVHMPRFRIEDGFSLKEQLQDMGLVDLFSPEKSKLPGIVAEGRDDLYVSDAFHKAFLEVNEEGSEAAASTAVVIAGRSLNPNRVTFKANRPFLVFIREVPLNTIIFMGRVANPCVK

With thrombin, the “cleavage of the factor X derivative by thrombin” value in [1] was “the FX-recombinant is not detectably cleavable by thrombin (ND)”. Besides, the “kcat/Km (M^-1 s^-1) for the activation of the factor X derivative by thrombin” value in [2] was 1 10^2 (±9%); in series [3], below 1 M⁻¹ s⁻¹; in series [4], below 1 M⁻¹ s⁻¹; in series [5], 4 10^3 (±27%); in series [6], below 1 M⁻¹ s⁻¹.
In turn, “activated form of the factor X from plasma (from UniProt P00742 41-179; P00742 235-488) (enzyme)” registered a kon in series [7] of 2300 M⁻¹ s⁻¹.

B1: activated form of the GDX-IVG derivative (enzyme, human)
light: EDQVDPRLIDGKDGDQCETSPCQNQGKCKDGLGEYTCTCLEGFEGKNCELFTRKLCSLDNGDCDQFCHEEQNSVVCSCARGYTLADNGKACIPTGPYPCGKQTLER
heavy: IVGGQECKDGECPWQALLINEENEGFCGGTILSEFYILTAAHCLYQAKRFKVRVGDRNTEQEEGGEAVHEVEVVIKHNRFTKETYDFDIAVLRLKTPITFRMNVAPACLPERDWAESTLMTQKTGIVSGFGRTHEKGRQSTRLKMLEVPYVDRNSCKLSSSFIITQNMFCAGYDTKQEDACQGDSGGPHVTRFKDTYFVTGIVSWGEGCARKGKYGIYTKVTAFLKWIDRSMKTRGLPKAKSHAPEVITSSPLKEQKLISEEDLN
notes: domain: two EGF domains;domain: catalytic domain
Consider B1, for which the results for the on-rate (kon) in [7], in series [8] and in [9] were 2250 M⁻¹ s⁻¹, 5800 M⁻¹ s⁻¹ and 2e+07 M⁻¹ s⁻¹, respectively. Moreover, the “coefficient of acceleration of pNA release by the thrombin generated by the activated factor X derivative alone (-factor Va)” value (“coefficient of acceleration … (-factor Va)” below) in [10] was 2.8 10^-5 (±2%). Besides, the “coefficient of acceleration of pNA release by the thrombin generated by the prothrombinase complex (+factor Va)” value (shortened to “coefficient of acceleration … (+factor Va)”) in [11] was 1.1 10^-4 (±1%). For the same molecule, the “fold increase of the rate of activation of the prothrombin on addition of factor Va” value in [11] was “the addition of factor Va increases the rate of activation of the prothrombin 50-fold and 10-fold respectively”.

B2: activated form of the GD-FX derivative (enzyme, human)
light: B1 light
heavy: B1 heavy
notes: as for B1
Take B2: the kon in series [7] worked out at 2230 M⁻¹ s⁻¹; in series [8], 12000 M⁻¹ s⁻¹; in [9], 1.3e+07 M⁻¹ s⁻¹. The “coefficient of acceleration … (-factor Va)” value in [10] is recorded as 8.8 10^-6 (±2%). For the same molecule, the “coefficient of acceleration … (+factor Va)” value in series [11] is 4.2 10^-4 (±2%). Besides, the “fold increase of the rate of activation of the prothrombin on addition of factor Va” value in series [11] was “the addition of factor Va increases the rate of activation of the prothrombin 50-fold and 10-fold respectively”.

B3: activated form of the GDX-IFR derivative (enzyme, human)
light: B1 light
heavy: B1 heavy with V2F, G3R
notes: as for B1
Turning to B3, the binding result in series [12] is on record as “binds”. In series [11], the “coefficient of acceleration … (+factor Va)” value is on record as 3.3 10^-6 (±1%).

B4: activated form of the GDX-SFR derivative (enzyme, human)
light: B1 light
heavy: B1 heavy with I1S, V2F, G3R
notes: as for B1
For B4, the binding result in series [13] was “no binding”.

B5: activated form of the GDX-AVG derivative (enzyme, human)
light: B1 light
heavy: B1 heavy with I1A
notes: as for B1
B5: in series [14], the kon was determined as 300 M⁻¹ s⁻¹. Besides, in series [15], the fold decrease of kon against the activated form of the factor X from plasma is 1000 times less. Moreover, in [16], the “fold decrease of kon against its non-mutated homologue (no heparin)” value was above 1000 times less. The “coefficient of acceleration … (-factor Va)” value in series [10] is reported as 9.6 10^-7 (±2%). Besides, in [11], the “coefficient of acceleration … (+factor Va)” value is 3.1 10^-5 (±1%) and the “rate of activation of the prothrombin with factor Va, against the non-mutated homologue (GDX-IVG)” value is listed as “this is now only 13 times less than that obtained for the activated form of its non-mutated homologue (GDX-IVG)”.

B6: activated form of the GDX-SVG derivative (enzyme, human)
light: B1 light
heavy: B1 heavy with I1S
notes: as for B1
Turning to B6, the binding result in series [12] is on record as “binds”.

B7: activated form of the GDX-IFG derivative (enzyme, human)
light: B1 light
heavy: B1 heavy with V2F
notes: domain: two EGF domains;domain: catalytic domain; Position 236 counted from the printed Ile235 = P1′
Regarding B7, the on-rate (kon) in series [8] was found to be 180 M⁻¹ s⁻¹; in series [9], 760000 M⁻¹ s⁻¹. Further, the fold decrease of kon against the activated form of the factor X from plasma in series [15] turned out to be 20 times lower. The “fold decrease of kon against the non-mutated activated forms (no heparin)” value in series [16] amounted to 66 times smaller. The “coefficient of acceleration … (-factor Va)” value in [10] is 1.0 10^-7 (±2%). In addition, in series [11], the “coefficient of acceleration … (+factor Va)” value was 4.9 10^-6 (±1%).
